Non-standard residues stand in square brackets, D forms with d. Groups on a side chain read outwards from the residue. Primed or numbered codes have the meaning given here. *: point of attachment. dPhe(3,5-F2) = N[C@H](Cc1cc(F)cc(F)c1)C(=O)O; dPhe(3-Cl) = N[C@H](Cc1cccc(Cl)c1)C(=O)O; dPhe(4-Cl) = N[C@H](Cc1ccc(Cl)cc1)C(=O)O; dPhe(2-Cl) = N[C@H](Cc1ccccc1Cl)C(=O)O; dPhe(3-F) = N[C@H](Cc1cccc(F)c1)C(=O)O; Desaminotyrosyl = O=C(CCc1ccc(O)cc1)*; dPhe(2-F) = N[C@H](Cc1ccccc1F)C(=O)O; dPhe(3,4,5-F3)′ = not defined here; Hydrocinnamoyl = O=C(CCc1ccccc1)*; SSA = succinimidyl succinamide

T1: human GIPR (glucose-dependent insulinotropic polypeptide receptor) (human, UniProt P48546 22-466)
T1 sequence (looked up): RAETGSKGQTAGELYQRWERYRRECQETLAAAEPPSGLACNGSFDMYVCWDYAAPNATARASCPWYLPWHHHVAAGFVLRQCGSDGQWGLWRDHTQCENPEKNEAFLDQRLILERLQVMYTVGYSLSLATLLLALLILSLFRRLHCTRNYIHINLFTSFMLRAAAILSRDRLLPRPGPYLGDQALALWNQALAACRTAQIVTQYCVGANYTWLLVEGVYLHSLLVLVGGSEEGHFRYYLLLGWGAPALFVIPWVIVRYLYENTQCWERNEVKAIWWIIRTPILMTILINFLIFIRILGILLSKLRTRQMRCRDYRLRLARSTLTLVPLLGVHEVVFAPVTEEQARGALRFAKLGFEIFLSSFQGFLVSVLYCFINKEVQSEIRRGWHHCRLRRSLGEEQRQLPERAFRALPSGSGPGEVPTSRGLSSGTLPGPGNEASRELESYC

B1: Ac-(D)-3-Pya-Ala-Glu-Gly-Thr-Phe-Ile-Ser-Asp-Tyr-Ser-Ile-Ala-Met-Asp-Lys-Ile-His-Gln-Gln-Asp-Phe-Val-Asn-Trp-Leu-Leu-Ala-Gln-Lys-NH2 (peptide)
peptide: AAEGTFISDYSIAMDKIHQQDFVNWLLAQK
modifications: position 1 is acetylated D-3-pyridylalanine (Ac-(D)3Pya); C-terminal amide (NH2)

The target of this assay is T1, human GIPR (glucose-dependent …). Nature of the assay: cell-based or functional assay.
Ac-[dY]AEGTFISDYSIAMDAIHQQDFVNWLLAQK([SSA-PEGm 12,000])-NH2: the “% activation of cAMP” value was 100% and the “EC50 (nMol), cAMP” value was determined as 0.0022 nmol.
For the molecule Ac-[dPhe(3-Cl)]AEGTFISDYSIAMDKIHQQDFVNWLLAQK-NH2 (also: 1:2 TFA salt), the “% activation of cAMP” value was 106% and the “EC50 (nMol), cAMP” value is 0.072 nmol.
In the case of [Desaminotyrosyl]AEGTFISDYSIAMDKIHQQDFVNWLLAQK-NH2 (also: 1:2 TFA salt), the “% activation of cAMP” value was found to be 103% and the “EC50 (nMol), cAMP” value stood at 0.095 nmol.
Taken in the same sequence, the figures for Ac-[dPhe(3,4,5-F3)′]AEGTFISDYSIAMDKIHQQDFVNWLLAQK-NH2 (also: 1:2 TFA salt) were 100% and 0.104 nmol.
Regarding Ac-[dPhe(3,5-F2)]AEGTFISDYSIAMDKIHQQDFVNWLLAQK-NH2 (also: 1:2 TFA salt), the “% activation of cAMP” value was 99.6% and the “EC50 (nMol), cAMP” value came out at 0.003 nmol.
Taken in the same sequence, the figures for Ac-[dW]AEGTFISDYSIAMDKIHQQDFVNWLLAQK-NH2 (also: 1:2 TFA salt) were 102% and 0.1 nmol.
The like results for Ac-[dPhe(4-Cl)]AEGTFISDYSIAMDKIHQQDFVNWLLAQK-NH2 (also: 1:2 TFA salt) were, in that order, 106% and 0.025 nmol.
Taken in the same sequence, the figures for Ac-[dPhe(2-F)]AEGTFISDYSIAMDKIHQQDFVNWLLAQK-NH2 (also: 1:2 TFA salt) were 99.8% and 0.0075 nmol.
In the case of Ac-[dPhe(3-F)]AEGTFISDYSIAMDKIHQQDFVNWLLAQK-NH2 (also: 1:2 TFA salt), the “% activation of cAMP” value came to 98% and the “EC50 (nMol), cAMP” value came out at 0.058 nmol.
[Hydrocinnamoyl]AEGTFISDYSIAMDKIHQQDFVNWLLAQK-NH2 (also: 1:2 TFA salt): the “% activation of cAMP” value worked out at 101% and the “EC50 (nMol), cAMP” value stood at 0.797 nmol.
For Ac-[dY]AEGTFISDYSIAMDAIHQQDFVNWLLAQK-NH2 (also: 1:1 TFA salt), the “% activation of cAMP” value stood at 100% and the “EC50 (nMol), cAMP” value amounted to 0.0005 nmol.
In the case of Ac-[dY]AEGTFISDYSIAMDAIHQQDFVNWLLAQK([SSA-PEGm 20,000])-NH2, the “% activation of cAMP” value was determined as 102% and the “EC50 (nMol), cAMP” value is 0.0049 nmol.
For Ac-YAEGTFISDYSIAMDKIHQQDFVNWLLAQK-NH2 (also: 1:2 TFA salt), the “% activation of cAMP” value was determined as 100%.
In the case of Ac-[dY]AEGTFISDYSIAMDKIHQQDFVNWLLAQK-NH2 (also: 1:2 TFA salt), the “% activation of cAMP” value was 102% and the “EC50 (nMol), cAMP” value turned out to be 0.0007 nmol.
In the case of Ac-[dY]AEGTFISDYSIAMDAIHQQDFVNWLLAQK([SSA-PEGm 30,000])-NH2, the “% activation of cAMP” value came to 101% and the “EC50 (nMol), cAMP” value stood at 0.0017 nmol.
Taken in the same sequence, the figures for B1 were 102% and 0.08 nmol.
On to Ac-[dPhe(2-Cl)]AEGTFISDYSIAMDKIHQQDFVNWLLAQK-NH2 (also: 1:2 TFA salt), for which the “% activation of cAMP” value worked out at 104% and the “EC50 (nMol), cAMP” value stood at 0.121 nmol.
The like results for Ac-[dF]AEGTFISDYSIAMDKIHQQDFVNWLLAQK-NH2 (also: 1:2 TFA salt) were, in that order, 102% and 0.685 nmol.

The record behind these values is US20120101037A1 (Hoffmann-La Roche, published 2012).
